Measured values as given in the supplement of paper PMC10567573.

B1: NP_006221.1 (parent)
chain: CQPISFSGFGAEDDDLGGLGLGP

Variants of: B1
Assay: protein stability index of a GFP-peptide fusion (GPS, HEK-293T) (PSI 1-6); higher = more stable
Conditions: c terminus: native
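Also: lentivirally expressed fusion library, cells FACS-sorted into six equal-sized GFP/DsRed ratio bins, PSI computed from sequencing read fractions per bin weighted by bin number.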

Protein stability index, by site and new letter:
G20: R 3.93 | Y 2.83 | E 2.81 | W 3.19 | K 4.31 | C 2.51 | S 2.69 | N 3.93 | A 2.29 | D 2.58 | Q 2.69 | V 3.37 | L 3.54 | M 2.77 | P 3.11 | I 3.2 | F 3.81 | T 3.68 | H 2.93
D14: V 2.12 | S 2.05 | C 2.12 | Q 2.11 | T 2.18 | N 2.33 | H 2.27 | I 2.21 | E 2.17 | G 2.13 | P 2.19 | F 2.51 | L 2.44 | M 2.29 | Y 2.12 | A 2.23 | R 1.99 | K 2.46 | W 2.48
D15: S 2.38 | Y 2.35 | A 2.28 | C 2.18 | V 2.29 | P 2.38 | E 2.15 | K 2.2 | Q 2.67 | H 2.08 | W 2.44 | R 2.13 | M 2.47 | F 2.32 | G 2.57 | L 2.41 | T 2.52 | N 2.18 | I 2.4
G17: R 1.52 | E 2.36 | K 2.08 | S 2.26 | D 2.33 | N 2.36 | P 2.05 | L 2.2 | I 1.93 | Q 2.12 | H 2.17 | A 2.16 | C 2.2 | V 1.99 | Y 2.15 | F 2.08 | W 2.46 | T 2.1 | M 1.7
D13: W 2.31 | T 2.28 | Y 2.02 | V 2.28 | Q 2.21 | P 2.08 | S 2.41 | N 2.2 | L 2.27 | R 2.04 | M 2.24
G22: D 2.15 | E 2.13 | A 2.29 | C 2.25 | F 2.4
L19: H 2.96 | N 2.54 | E 2.49 | M 2.29 | W 2.78 | G 2.87 | V 2.11 | C 2.52 | Q 2.39 | S 2.91 | A 2.72 | I 2.13 | P 2.7 | Y 2.31 | K 1.99 | D 2.39 | T 3.02 | F 2.51
L16: M 2.45 | A 2.59 | V 2.36 | F 2.23 | G 2.21 | K 2.25 | N 2.07 | Y 2.27 | H 2.26 | E 1.85 | W 2.25 | S 2.28 | D 2.22 | T 2.35 | P 2.15 | Q 2.27 | R 2.18 | C 2.34 | I 2.21
L21: F 4 | Y 4.14 | I 3.46 | V 3.37 | N 4.89 | R 2.74 | P 5.09 | Q 4.85 | T 3.94 | C 3.02 | E 5.34 | D 5.19 | M 3.33 | S 5.12 | A 4.88 | H 4.76 | G 4.98 | W 4.11 | K 3.95
G18: Y 2.18 | T 2.23 | R 2.31 | C 2.35 | L 2.24 | S 2.24 | N 2.16 | V 2.17 | W 2.57 | P 1.99 | D 2.19 | M 1.99 | K 1.93 | H 1.99 | E 2.42 | A 2.13 | Q 2 | I 2.18 | F 2.24
